Measured values reported in publication PMC8856988.

Columns and labels:
[1] = molecular target: Skeletal muscle myosin (rabbit) (rabbit); test: BLI; SkM immobilised on Octet Red Amine Reactive Second-Generation Biosensor; FXI or PK in solution; 30 mM Hepes, pH 7.4, 0.01% Tween-20, 0.1% PEG, 50 mM NaCl, 30 °C
[2] = molecular target: Skeletal muscle myosin (rabbit) (rabbit); test: ELISA; SkM immobilised on microtiter plate; diluted pooled plasma (endogenous FXI) in 30 mM Hepes, pH 7.4, 130 mM NaCl, 2 h, room temperature; bound FXI detected with anti-FXI mAb AHXI-5061, calculated from the curve of purified FXI; apparent
[3] = molecular target: Skeletal muscle myosin (rabbit) (rabbit); test: ELISA; SkM (10 μg/ml, sodium bicarbonate pH 9.3) immobilised on microtiter plate, blocked with 0.5% BSA; purified FXI 0–10 nM in 30 mM Hepes, pH 7.4, 130 mM NaCl, 2 h, room temperature; bound FXI detected with anti-FXI mAb AHXI-5061 and HRP-goat antimouse; apparent

Chain of Skeletal muscle myosin (rabbit) (rabbit) (Q28641 whole entry, chain 1 of 3): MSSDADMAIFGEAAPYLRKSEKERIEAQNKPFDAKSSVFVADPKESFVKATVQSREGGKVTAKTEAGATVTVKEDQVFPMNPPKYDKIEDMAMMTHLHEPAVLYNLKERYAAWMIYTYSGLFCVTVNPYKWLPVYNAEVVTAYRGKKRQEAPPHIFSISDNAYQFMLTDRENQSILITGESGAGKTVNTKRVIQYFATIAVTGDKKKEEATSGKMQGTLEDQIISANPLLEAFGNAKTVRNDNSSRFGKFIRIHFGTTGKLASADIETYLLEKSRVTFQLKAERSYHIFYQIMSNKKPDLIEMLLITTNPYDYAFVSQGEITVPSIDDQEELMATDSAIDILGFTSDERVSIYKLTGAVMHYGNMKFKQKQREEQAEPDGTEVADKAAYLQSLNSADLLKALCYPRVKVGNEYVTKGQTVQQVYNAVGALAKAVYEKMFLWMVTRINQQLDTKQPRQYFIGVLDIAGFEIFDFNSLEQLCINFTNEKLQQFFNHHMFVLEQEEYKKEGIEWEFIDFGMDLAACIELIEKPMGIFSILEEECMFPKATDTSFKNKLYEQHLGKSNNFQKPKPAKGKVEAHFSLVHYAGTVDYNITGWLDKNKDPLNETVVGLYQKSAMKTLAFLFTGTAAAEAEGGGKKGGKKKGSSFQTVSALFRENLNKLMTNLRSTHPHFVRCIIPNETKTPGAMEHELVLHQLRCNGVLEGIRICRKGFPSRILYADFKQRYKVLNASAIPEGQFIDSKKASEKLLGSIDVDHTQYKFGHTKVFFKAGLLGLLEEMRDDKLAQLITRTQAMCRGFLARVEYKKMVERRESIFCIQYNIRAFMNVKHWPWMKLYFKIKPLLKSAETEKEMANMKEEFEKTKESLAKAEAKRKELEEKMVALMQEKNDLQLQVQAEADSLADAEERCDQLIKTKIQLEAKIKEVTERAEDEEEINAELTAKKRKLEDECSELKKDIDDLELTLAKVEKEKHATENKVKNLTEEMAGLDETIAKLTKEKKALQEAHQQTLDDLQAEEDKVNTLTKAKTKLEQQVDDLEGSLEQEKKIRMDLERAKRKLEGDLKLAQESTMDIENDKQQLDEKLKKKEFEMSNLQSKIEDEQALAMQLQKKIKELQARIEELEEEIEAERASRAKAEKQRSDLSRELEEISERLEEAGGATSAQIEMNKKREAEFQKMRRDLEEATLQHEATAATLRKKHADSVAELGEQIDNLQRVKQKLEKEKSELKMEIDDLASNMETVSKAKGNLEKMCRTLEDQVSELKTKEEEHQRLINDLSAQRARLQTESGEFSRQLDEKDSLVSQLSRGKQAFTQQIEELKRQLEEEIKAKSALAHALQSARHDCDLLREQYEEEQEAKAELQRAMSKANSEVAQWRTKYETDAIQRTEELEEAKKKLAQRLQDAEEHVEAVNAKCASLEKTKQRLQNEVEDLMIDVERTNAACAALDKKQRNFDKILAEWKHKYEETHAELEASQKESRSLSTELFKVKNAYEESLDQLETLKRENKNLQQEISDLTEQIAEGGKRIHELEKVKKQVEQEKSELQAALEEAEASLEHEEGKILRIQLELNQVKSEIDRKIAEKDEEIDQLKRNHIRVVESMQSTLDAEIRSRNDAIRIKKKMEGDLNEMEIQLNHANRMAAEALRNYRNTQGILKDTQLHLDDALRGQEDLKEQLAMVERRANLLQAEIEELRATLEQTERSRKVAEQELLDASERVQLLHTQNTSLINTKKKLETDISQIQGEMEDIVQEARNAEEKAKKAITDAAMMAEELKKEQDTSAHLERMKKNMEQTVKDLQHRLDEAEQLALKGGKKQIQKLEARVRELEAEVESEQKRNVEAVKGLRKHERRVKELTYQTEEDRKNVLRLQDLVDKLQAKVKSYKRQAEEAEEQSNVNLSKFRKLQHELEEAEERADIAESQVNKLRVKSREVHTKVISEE
Chain of Skeletal muscle myosin (rabbit) (rabbit) (P02602 2-192, chain 2 of 3, further chain): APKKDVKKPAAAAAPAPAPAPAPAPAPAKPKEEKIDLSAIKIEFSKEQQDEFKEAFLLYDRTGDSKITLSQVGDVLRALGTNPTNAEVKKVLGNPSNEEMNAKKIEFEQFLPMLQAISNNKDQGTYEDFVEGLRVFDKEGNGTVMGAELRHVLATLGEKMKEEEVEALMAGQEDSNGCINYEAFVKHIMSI
Chain of Skeletal muscle myosin (rabbit) (rabbit) (P02608 2-170, chain 3 of 3, further chain): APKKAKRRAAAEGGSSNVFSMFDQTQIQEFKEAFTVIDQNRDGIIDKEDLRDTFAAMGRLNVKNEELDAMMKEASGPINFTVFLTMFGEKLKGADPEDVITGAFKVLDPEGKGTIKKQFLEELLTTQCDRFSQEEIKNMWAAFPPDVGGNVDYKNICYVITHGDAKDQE

Substance Coagulation factor XI (natural protein) has a Kd [1] of 0.2 nM, a koff [1] of 0.000795 s⁻¹ and a kon [1] of 3.87e+06 M⁻¹ s⁻¹. It also gave a Kd [2] of 0.7 nM and a Kd [3] of 1.7 nM.
